The labels stand for the following.
T1: CD73 (as used in the affinity measurements) (UniProt P21589 27-549, limits assumed)
T1 construct: also called CD73 antigen; 5'-nucleotidase
T1 sequence (looked up): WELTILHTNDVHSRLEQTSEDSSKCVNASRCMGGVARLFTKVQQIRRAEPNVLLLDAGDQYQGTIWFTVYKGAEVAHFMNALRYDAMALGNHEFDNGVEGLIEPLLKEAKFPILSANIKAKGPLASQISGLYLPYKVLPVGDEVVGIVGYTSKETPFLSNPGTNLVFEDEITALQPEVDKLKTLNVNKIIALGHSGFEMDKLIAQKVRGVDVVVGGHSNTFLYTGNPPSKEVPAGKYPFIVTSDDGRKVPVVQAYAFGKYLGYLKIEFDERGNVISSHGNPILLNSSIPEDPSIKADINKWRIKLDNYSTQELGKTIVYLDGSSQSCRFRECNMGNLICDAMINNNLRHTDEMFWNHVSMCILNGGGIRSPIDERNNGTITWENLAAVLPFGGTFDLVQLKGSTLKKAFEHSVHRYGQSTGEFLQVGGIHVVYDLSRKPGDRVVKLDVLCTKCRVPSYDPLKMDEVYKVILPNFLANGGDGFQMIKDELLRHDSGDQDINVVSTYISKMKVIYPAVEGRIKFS

B1: CPX-003 (humanized 1E9 antibody, BAP094-hum03) (antibody, human IgG1, V domains shown)
VH: QVQLVQSGAEVKKPGASVKVSCKASGYTFTSYWITWVRQARGQRLEWIGDIYPGSGNTNYNEKFKTRVTITADKSTSTAYMELSSLRSEDTAVYYCAKEGGLTTEDYALDYWGQGTLVTVSS
VL: EIVLTQSPDFQSVTPKEKVTITCRASKNVSTSGYSYMHWYQQKPGKAPKLLIYLASNLESGIPPRFSGSGYGTDFTLTINNIESEDAAYYFCQHSRELPFTFGQGTKVEI
B2: CPX-005 (humanized 1E9 antibody, BAP094-hum06) (antibody, human IgG1, V domains shown)
VH: QVQLVQSGAEVEKPGASVKVSCKASGYTFTSYWITWVRQAPGQGLEWMGDIYPGSGNTNYNEKFKTRVTITADKSTSTAYMELSSLRSEDTAVYYCAKEGGLTTEDYALDYWGQGTLVTVSS
VL: AIQLTQSPSSLSASVGDRVTITCRASKNVSTSGYSYMHWYQQKPGQAPRLLIYLASNLESGVPSRFSGSGSGTDFTFTISSLEAEDAATYYCQHSRELPFTFGQGTKVEIK
B3: CPX-006 (humanized 1E9 antibody; BAP094-hum06-HC with BAP094-hum07-LC) (antibody, V domains shown)
VH: QVQLVQSGAEVEKPGASVKVSCKASGYTFTSYWITWVRQAPGQGLEWMGDIYPGSGNTNYNEKFKTRVTITADKSTSTAYMELSSLRSEDTAVYYCAKEGGLTTEDYALDYWGQGTLVTVSS
VL: EIVLTQSPATLSLSPGERATLSCRASKNVSTSGYSYMHWYQQKPGQAPRLLIYLASNLESGIPPRFSGSGYGTDFTLTINNIESEDAAYYFCQHSRELPFTFGQGTKVEIK
notes: also called anti-CD73 (CPX-006)
B4: CPX-007 (humanized 1E9 antibody; BAP094-hum03-HC with BAP094-hum07-LC) (antibody, human IgG1, V domains shown)
VH: QVQLVQSGAEVKKPGASVKVSCKASGYTFTSYWITWVRQARGQRLEWIGDIYPGSGNTNYNEKFKTRVTITADKSTSTAYMELSSLRSEDTAVYYCAKEGGLTTEDYALDYWGQGTLVTVSS
VL: EIVLTQSPATLSLSPGERATLSCRASKNVSTSGYSYMHWYQQKPGQAPRLLIYLASNLESGIPPRFSGSGYGTDFTLTINNIESEDAAYYFCQHSRELPFTFGQGTKVEIK
B5: CPX-002 (chimeric 1E9 antibody, clone BAP094-01) (antibody, human IgG1, V domains shown)
VH: QVQLQQPGAELVKPGASVKMSCKASGYTFTSYWITWVKQRPGQGLEWIGDIYPGSGNTNYNEKFKTKATLTVDTSSSTAYMQLSSLTSEDSAVYYCAKEGGLTTEDYALDYWGQGTLVTVSS
VL: DIVLTQSPASLAVSLGQRATISCRASKNVSTSGYSYMHWYQQKPGQPPKLLIYLASNLESGVPTRFSGSGSGTDFTLNIHPVEEEDAATYYCQHSRELPFTFGSGTKLEIK
notes: also called chimeric antibody
B6: CPX-004 (humanized 1E9 antibody, BAP094-hum05) (antibody, human IgG1, V domains shown)
VH: EVQLVQSGAEVKKPGATVKISCKVSGYTFTSYWITWIRQPPGKGLEWIGDIYPGSGNTNYNEKFKTRVTISADKSISTAYLQWSSLKASDTAMYYCAKEGGLTTEDYALDYWGQGTLVTVSS
VL: DVVMTQSPLSLPVTLGQPASISCRASKNVSTSGYSYMHWYQQKPGQAPRLLIYLASNLESGIPPRFSGSGYGTDFTLTINNIESEDAAYYFCQHSRELPFTFGQGTKVEIK

The target of the test is T1, CD73 (as used in the affinity …). Briefly: affinity measurement, method not stated.
Turning to B1, the Kd (as a rule, the concentration at which binding is half-saturated) is 19.5 nM.
Under B2 stands 6.9 nM.
Molecule B3 gave an equilibrium dissociation constant (Kd) of 7.1 nM. The Kd values of the last two molecules are within 1.5-fold of each other.
Under B4 stands 15.9 nM; under B5, 9.4 nM; under B6, 17.8 nM.

The values above are taken from US20210253727A1 (CORVUS PHARMACEUTICALS, published 2021).
